Columns and labels:
Assay in all cases: peptide microarray, 1 µg/mL LY75_A1, anti-human IgG Alexa 647
RRGWHFYD = target: T1, RRGWHFYD
T1 peptide: RRGWHFYD
Experimental: (§1) The chip comprised three panels such that the experiment was performed in triplicate. […] The binding assay was performed under the following conditions:—The microarray comprising the contiguous peptides in triplicate was washed with 1 mL of binding buffer at 4° C. for 20 min. […] The array was again washed with 0.5 mL of washing buffer at 4° C. for 30 min.

DREFIYLR = target: T2, DREFIYLR
T2 peptide: DREFIYLR
Experimental: as §1

EFIYLRPF = target: T3, EFIYLRPF
T3 peptide: EFIYLRPF
Experimental: as §1

Measured: binding result

B1: LY75_A1 monoclonal antibody (antibody, V domains shown)
VH: EVQLVESGGGLVKPGGSLRLSCAASGFTYSNAWMSWVRQAPGKGLEWVGRIKSKTDGGTTDYAAPVQGRFTISRDDSKNTLYLQMNSLKTEDTAVYYCTIFGVVSFDYWGQGTLVTVSS
VL: DVQMTQSPSSLSASVGDRVTITCRASQSISDYLSWYQQRPGKAPNLLIYAASNLKTGVPSRFSGSGSGTDFTLTISTLQPEDFATYYCQQSYRSPWTFGQGTKVEIKR
notes: also called LY75A1 antibody; LY75_A1 antibody
binds: RRGWHFYD | DREFIYLR | EFIYLRPF

Reference: US20160257760A1 (OXFORD BIOTHERAPEUTICS, published 2016)
